A word on the EC50: it is the concentration needed to bring the measured effect to its halfway point. One may read the IC50 as the midpoint of a concentration-inhibition curve.

For two molecules, EC50 and IC50 results are on record in US20230106715A1 (BIOSION, published 2023).

Assay [1] addresses T1, recombinant human Siglec15-his protein (human, UniProt Q6ZMC9 20-263).
T1 construct: In house made; Biotin-labeled in the capture ELISA
T1 sequence: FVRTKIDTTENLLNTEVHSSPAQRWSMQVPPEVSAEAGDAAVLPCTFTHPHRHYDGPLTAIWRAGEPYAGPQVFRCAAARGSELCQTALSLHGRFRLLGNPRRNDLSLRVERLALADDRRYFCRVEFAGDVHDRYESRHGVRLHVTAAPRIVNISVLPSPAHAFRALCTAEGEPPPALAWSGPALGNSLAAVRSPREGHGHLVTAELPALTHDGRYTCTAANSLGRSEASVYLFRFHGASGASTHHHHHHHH
Description: capture ELISA, captured antibody, biotin-labeled human Siglec15-his in solution. As for the experimental part: Briefly, 96-well plates were coated with 100 μl of 2 μg/ml AffiniPure Goat Anti-Human IgG F(ab′)₂ fragment specific (Jackson Immuno Research, Cat #109-005-097) in PBS for 2 hours at 37° C. Plates were washed once with wash buffer (PBS+0.05% v/v Tween-20, PBST) and then blocked with 200 μl blocking buffer (5% w/v non-fatty milk in PBST) overnight at 4° C. Plates were washed 4 times and respectively incubated with 100 μl serially diluted anti-Siglec15 antibodies of the disclosure, the benchmark and hIgG (human immunoglobulin (pH4) for intravenous injection, Hualan Biological Engineering Inc.), 5-fold dilution in 2.5% w/v non-fatty milk in PBST starting at 66.7 nM, for 40 minutes at 37° C., and then washed 4 times again. […] The reaction was stopped in 4 minutes at room temperature with 50 μl/well 1M H₂SO₄, and the absorbance of each well was read on a microplate reader using dual wavelength mode with 450 nm for TMB and 630 nm as the reference wavelength, then the OD (450-630) values were plotted against antibody concentration. Data was analyzed using Graphpad Prism software and EC₅₀ values were reported.
For orientation: ELISA stands for enzyme-linked immunosorbent assay.

For assay [2], the target named is T2, human Siglec15-Fc protein (human).
T2 construct: In house made; also called recombinant human Siglec15 protein with human IgG1 Fc at the C-terminus
The experiment in a line: competitive ELISA: biotin-labeled human Siglec15-Fc in solution, competitor coated benchmark; falling curve, table row is labelled EC50. How it is done:
(§1) The abilities of the anti-Siglec15 antibodies of the disclosure to block benchmark-human Siglec15 binding were measured in a competitive ELISA assay. Briefly, the benchmark was coated on 96-well micro plates at 2 μg/mL in PBS, 100 μl per well, and incubated for 2 hours at 37° C. Then plates were washed once with wash buffer, and blocked with 5% w/v non-fatty milk in PBST overnight at 4° C. The next day, the anti-Siglec15 antibodies of the disclosure or controls were diluted with biotin labeled human Siglec15-Fc protein (prepared in-house with SEQ ID NO: 19, 37 ng/ml in PBST with 2.5% w/v non-fatty milk), starting at 80 nM with a 4-fold serial dilution, and incubated at room temperature for 40 minutes. After plate washing 4 times, the antibody/Siglec15-Fc mixtures were added to benchmark coated plates, 100 μl per well. After incubation at 37° C. for 40 minutes, plates were washed 4 times again using wash buffer. Then the plates were added and incubated with 100 μl/well streptavidin conjugated HRP for 40 minutes at 37° C. […] Finally, TMB was added and the reaction was stopped using 1M H₂SO₄, and the absorbance of each well was read on a microplate reader using dual wavelength mode with 450 nm for TMB and 630 nm as the reference wavelength, then the OD (450-630) values were plotted against antibody concentration. Data was analyzed using Graphpad Prism software and IC₅₀ values were reported.
Target sequence in this assay (chain, as listed by the source limits assumed): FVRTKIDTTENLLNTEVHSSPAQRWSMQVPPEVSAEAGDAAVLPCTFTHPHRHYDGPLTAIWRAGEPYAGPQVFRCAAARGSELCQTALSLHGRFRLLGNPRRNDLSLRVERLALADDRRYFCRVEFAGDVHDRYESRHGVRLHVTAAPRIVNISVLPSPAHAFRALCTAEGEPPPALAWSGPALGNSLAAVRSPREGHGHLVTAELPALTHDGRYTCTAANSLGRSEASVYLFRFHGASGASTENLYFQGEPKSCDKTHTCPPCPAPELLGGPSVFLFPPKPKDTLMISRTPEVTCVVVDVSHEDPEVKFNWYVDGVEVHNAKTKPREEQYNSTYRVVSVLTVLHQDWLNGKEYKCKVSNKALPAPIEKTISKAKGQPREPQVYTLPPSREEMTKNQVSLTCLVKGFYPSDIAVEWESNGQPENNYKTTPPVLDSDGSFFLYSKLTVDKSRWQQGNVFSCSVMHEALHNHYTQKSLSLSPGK

Assay [3] addresses T2, human Siglec15-Fc protein. The experiment in a line: competitive ELISA: biotin-labeled human Siglec15-Fc in solution, competitor coated benchmark. As for the experimental part:
as §1

For assay [4], the target named is T2, human Siglec15-Fc protein. The experiment in a line: competitive ELISA: biotin-labeled human Siglec15-Fc in solution, competitor coated benchmark; curve levels off at OD about 0.55, inhibition incomplete. How it is done:
as §1

B1: anti-Siglec15 benchmark (ch5G12) (antibody, human IgG1, kappa, V domains shown)
VH: QVQLQQPGAELVKPGASVKMSCKASGYTFTSYWITWVIQRPGQGLEWIGDIYCGSDTMHYNEKFKNKATLTVDTSSSTAYMQLSSLTSEDSAVYYCARWWDYGSSYDYFDYWGQGTTLTVSS
VL: DIKMTQSPSSMYASLGERVTITCKASQDINSYLSWFQQKPGKSPKTLIYRANRLVDGVPSRFSGSGSGQDYSLTISSLEYEDMGIYYCLQYDEFPYTFGGGTKLEIKR
notes: ch5G12 (US 20190202912A1); also called BM; Siglec15-ch5G9
For B1, in assay [1], the EC50 was determined as 2.35 nM. Also, the values for the IC50 in assay [2] and in assay [3] were 0.486 nM and 0.338 nM, respectively.

B2: A1E10G7H9 (antibody, V domains shown)
VH: QVQLQESGPGLVKPSGTLSLTCAVSGGSISSSNWWHWVRQPPGKGLEWIGEIYHSGNTNYKPSLKSRVTISVDKSKNQFSLKLSSVTAADTAVYYCARDEGNGWSNAFDIWGQGTMVTVSS
VL: ENVLTQSPGTLSLSPGERVTLSCRASQSVSSSYLAWYQQKPGQAPRFLIYGASGGATGIPDRFSGSGSGTDFTLTISRLEPEDFAVYYCQQYGSSPITFGQGTRLEIK
notes: Fully human antibody from transgenic mouse hybridoma
B2: in assay [4], the IC50 was about 0.0777 nM.
